The source of these data is publication PMC10397247.

One assay addresses T1, 4H968-bN.
T1 chain: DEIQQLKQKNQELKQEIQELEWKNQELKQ
Description: two-hybrid library CCNG1.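 Further: natural log of median RNA to DNA barcode read ratio; higher means stronger binding.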

The next assay has as its target T2, 4H683-bN.
T2 chain: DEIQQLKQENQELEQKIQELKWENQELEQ
Description: two-hybrid library CCNG1.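 Further: natural log of median RNA to DNA barcode read ratio; higher means stronger binding.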

Another assay deals with T3, 4H575-bN.
T3 chain: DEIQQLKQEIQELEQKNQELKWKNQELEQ
Kind of assay: two-hybrid library CCNG1.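 Further: natural log of median RNA to DNA barcode read ratio; higher means stronger binding.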

A further assay addresses T4, 4H855-bN.
T4 chain: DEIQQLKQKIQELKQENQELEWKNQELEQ
Kind of assay: two-hybrid library CCNG1.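 Further: natural log of median RNA to DNA barcode read ratio; higher means stronger binding.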

A further assay concerns the target T5, 4H3010-bN.
T5 chain: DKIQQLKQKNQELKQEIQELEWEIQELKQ
Description: two-hybrid library CCNG1.

In the next assay the target is T6, 4H4073-bN.
T6 chain: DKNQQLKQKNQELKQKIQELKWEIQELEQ
Description: two-hybrid library CCNG1.

For the next assay, the target named is T7, 4H3926-bN.
T7 chain: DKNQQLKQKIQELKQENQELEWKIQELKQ
Description: two-hybrid library CCNG1.

In the next assay the target is T8, 4H346-bN.
T8 chain: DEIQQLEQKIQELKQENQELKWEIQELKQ
Kind of assay: two-hybrid library CCNG1.

The next assay concerns the target T9, 4H797-bN.
T9 chain: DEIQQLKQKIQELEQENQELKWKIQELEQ
Kind of assay: two-hybrid library CCNG1.

The target of the next assay is T10, 4H953-bN.
T10 chain: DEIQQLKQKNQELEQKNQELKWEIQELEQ
Kind of assay: two-hybrid library CCNG1.

The target of another assay is T11, 4H780-bN.
T11 chain: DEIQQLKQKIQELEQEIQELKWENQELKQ
Kind of assay: two-hybrid library CCNG1.

The next assay has as its target T12, 4H3427-bN.
T12 chain: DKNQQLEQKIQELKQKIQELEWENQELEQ
Kind of assay: two-hybrid library CCNG1.

The target of a further assay is T13, 4H754-bN.
T13 chain: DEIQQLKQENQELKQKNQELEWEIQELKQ
Kind of assay: two-hybrid library CCNG1.

The target in the next assay is T14, 4H457-bN.
T14 chain: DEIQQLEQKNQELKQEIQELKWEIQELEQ
Kind of assay: two-hybrid library CCNG1.

A further assay has as its target T15, 4H918-bN.
T15 chain: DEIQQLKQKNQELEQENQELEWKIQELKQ
Description: two-hybrid library CCNG1.

In another assay the target is T16, 4H3112-bN.
T16 chain: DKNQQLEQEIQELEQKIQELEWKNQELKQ
Description: two-hybrid library CCNG1.

The target of another assay is T17, 4H40-bN.
T17 chain: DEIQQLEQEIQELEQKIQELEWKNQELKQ
Description: two-hybrid library CCNG1.

The target of a further assay is T18, 4H2717-bN.
T18 chain: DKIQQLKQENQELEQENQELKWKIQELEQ
Kind of assay: two-hybrid library CCNG1.

A further assay deals with T19, 4H477-bN.
T19 chain: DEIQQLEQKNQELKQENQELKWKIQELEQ
Description: two-hybrid library CCNG1.

Another assay addresses T20, 4H492-bN.
T20 chain: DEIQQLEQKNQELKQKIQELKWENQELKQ
Kind of assay: two-hybrid library CCNG1.

The target in the next assay is T21, 4H741-bN.
T21 chain: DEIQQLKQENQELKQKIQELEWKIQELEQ
Description: two-hybrid library CCNG1.

Another assay has as its target T22, 4H2915-bN.
T22 chain: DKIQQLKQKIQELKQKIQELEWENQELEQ
Description: two-hybrid library CCNG1.

A further assay concerns the target T23, 4H3057-bN.
T23 chain: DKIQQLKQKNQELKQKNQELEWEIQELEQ
Description: two-hybrid library CCNG1.

The next assay addresses T24, 4H3277-bN.
T24 chain: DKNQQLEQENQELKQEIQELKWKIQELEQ
Kind of assay: two-hybrid library CCNG1.

A further assay addresses T25, 4H2839-bN.
T25 chain: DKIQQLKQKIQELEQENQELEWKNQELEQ
Description: two-hybrid library CCNG1.

For another assay, the target named is T26, 4H348-bN.
T26 chain: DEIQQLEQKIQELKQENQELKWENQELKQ
Kind of assay: two-hybrid library CCNG1.

The target in the next assay is T27, 4H319-bN.
T27 chain: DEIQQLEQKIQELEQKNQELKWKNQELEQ
Kind of assay: two-hybrid library CCNG1.

For a further assay, the target named is T28, 4H3628-bA.
T28 chain: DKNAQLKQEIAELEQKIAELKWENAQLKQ
Kind of assay: two-hybrid library CCNG1.

The next assay concerns the target T29, 4H906-bA.
T29 chain: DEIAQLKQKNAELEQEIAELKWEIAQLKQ
Kind of assay: two-hybrid library CCNG1.

For the next assay, the target named is T30, 4H626-bA.
T30 chain: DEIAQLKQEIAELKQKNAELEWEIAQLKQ
Description: two-hybrid library CCNG1.

The target of another assay is T31, 4H3613-bA.
T31 chain: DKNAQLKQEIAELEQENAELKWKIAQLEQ
Description: two-hybrid library CCNG1.

Another assay deals with T32, 4H3298-bA.
T32 chain: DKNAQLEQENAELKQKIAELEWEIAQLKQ
Kind of assay: two-hybrid library CCNG1.

The next assay has as its target T33, 4H591-bA.
T33 chain: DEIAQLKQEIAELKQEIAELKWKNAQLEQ
Description: two-hybrid library CCNG1.

A further assay concerns the target T34, 4H3926-bA.
T34 chain: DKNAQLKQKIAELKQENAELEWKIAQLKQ
Kind of assay: two-hybrid library CCNG1.

For a further assay, the target named is T35, 4H3497-bA.
T35 chain: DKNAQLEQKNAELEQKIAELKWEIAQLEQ
Kind of assay: two-hybrid library CCNG1.

Another assay addresses T36, 4H3462-bA.
T36 chain: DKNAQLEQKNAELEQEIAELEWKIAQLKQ
Kind of assay: two-hybrid library CCNG1.

For a further assay, the target named is T37, P6-AA-12HGe-S.
T37 chain: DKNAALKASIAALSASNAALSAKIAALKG
Kind of assay: two-hybrid library CCmax. As to conditions: mean of both orientations.

A further assay addresses T38, P6-AA-12HGe-M.
T38 chain: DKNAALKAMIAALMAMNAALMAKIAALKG
Description: two-hybrid library CCmax. As to conditions: mean of both orientations.

Another assay addresses T39, P6-AA-12HGe-T.
T39 chain: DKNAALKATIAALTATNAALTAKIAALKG
Kind of assay: two-hybrid library CCmax. As to conditions: mean of both orientations.

A further assay addresses T40, P6-AA-12HGe-A.
T40 chain: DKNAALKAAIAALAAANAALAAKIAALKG
Kind of assay: two-hybrid library CCmax. As to conditions: mean of both orientations.

The target of another assay is T41, P6-AA-12HGe-R.
T41 chain: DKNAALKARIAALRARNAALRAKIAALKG
Description: two-hybrid library CCmax. As to conditions: mean of both orientations.

The target of a further assay is T42, P6-AA-12HGe-D.
T42 chain: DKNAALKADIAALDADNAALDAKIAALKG
Description: two-hybrid library CCmax. As to conditions: mean of both orientations.

The next assay concerns the target T43, P6-AA-12HGe-H.
T43 chain: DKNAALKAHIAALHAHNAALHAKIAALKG
Description: two-hybrid library CCmax. As to conditions: mean of both orientations.

For another assay, the target named is T44, P6-AA-12HGe-Q.
T44 chain: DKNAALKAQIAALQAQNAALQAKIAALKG
Kind of assay: two-hybrid library CCmax. As to conditions: mean of both orientations.

For the next assay, the target named is T45, P6-AA-12HGe-K.
T45 chain: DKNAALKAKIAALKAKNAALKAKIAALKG
Description: two-hybrid library CCmax. As to conditions: mean of both orientations.

The next assay has as its target T46, P6-AA-12HGe-W.
T46 chain: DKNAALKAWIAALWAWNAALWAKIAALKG
Description: two-hybrid library CCmax. As to conditions: mean of both orientations.

Turning to DKIQQLKQKNQELKQEIQELEWEIQELKQ [4H3010-bN], the interaction score with 4H968-bN was -1.13; with 4H683-bN it was 1.02; with 4H575-bN, -1.47; with 4H855-bN, -0.686; with 4H3010-bN, -0.256; in the assay with 4H4073-bN, -1.32. The interaction score is -0.546 with 4H3926-bN; -1.97 with 4H346-bN; -0.873 in the assay with 4H797-bN; -1.77 with 4H953-bN; -0.214 with 4H780-bN; -0.668 in the assay with 4H3427-bN. Further, the interaction score with 4H754-bN was -1.56; with 4H457-bN, -0.409; with 4H918-bN it was -0.536; with 4H3112-bN, -1.33.

Take DKIQQLKQENQELEQENQELKWKIQELEQ [4H2717-bN]: the interaction score in the assay with 4H40-bN was -1.61; in the assay with 4H2717-bN, 0.00236; with 4H477-bN, 1.4; with 4H492-bN, -0.854; in the assay with 4H741-bN, -2.58; with 4H2915-bN it was -0.6. Moreover, the interaction score was -1.99 with 4H3057-bN; -1.11 with 4H3277-bN; -0.648 with 4H2839-bN; -0.289 with 4H348-bN; -0.684 with 4H319-bN.

As for DKNAQLEQENAELKQKIAELEWEIAQLKQ [4H3298-bA], the interaction score is -0.0439 with 4H3628-bA; -0.638 in the assay with 4H906-bA; -1.12 with 4H626-bA; 0.681 with 4H3613-bA; 1.02 in the assay with 4H3298-bA; -0.699 with 4H591-bA. Besides, the results for the interaction score with 4H3926-bA, with 4H3497-bA and with 4H3462-bA were -0.651, -0.263 and 0.667, respectively.

Turning to DENAALEAQIAALQAQNAALQAEIAALEG [P5-AA-12HGe-Q], the interaction score with P6-AA-12HGe-S is 0.0975; with P6-AA-12HGe-M, 1.12; in the assay with P6-AA-12HGe-T, 1.2; in the assay with P6-AA-12HGe-A it was 1.19; with P6-AA-12HGe-R, 1.09; with P6-AA-12HGe-D it was -1.9. For the same molecule, the interaction score with P6-AA-12HGe-H is -0.211; in the assay with P6-AA-12HGe-Q it was 1.76; in the assay with P6-AA-12HGe-K, 1.68; with P6-AA-12HGe-W, -1.08.
